In US20180355061A1 (Janssen / Centocor, published 2018):

What was measured:
[1] = target: T1, human PD-1 expressed on cells (human, UniProt Q15116 25-288); assay: cell-based or functional assay
[2] = target: T2, human PD-1 (soluble analyte in SPR) (human, UniProt Q15116 25-170, limits assumed); assay: SPR (ProteOn XPR36), mAb captured on anti-human IgG Fc, PD-1 as analyte, 25 C
T2 construct: also called CD279; PDCD1
Procedure: (§1) Affinity measurements were performed using a ProteOn XPR36 system (BioRad). […] Approximately 5000 RU (response units) of mAbs were immobilized. The kinetic experiments were performed at 25° C. in running buffer (DPBS+0.01% P20+100 μg/mL BSA). To perform kinetic experiments, 200 RU of mAbs were captured followed by injections of analytes (human and cyno PD-1) at concentrations ranging from 1.563 nM to 400 nM (in a […] serial dilution). The association phase was monitored for 3 minutes at 50 μL/min, then followed by 10 or 15 minutes of buffer flow (dissociation phase). The chip surface was regenerated with two 18 second pulses of 100 mM H₃PO₄ (Sigma, Cat #7961) at 100 μL/min.
(§2) The collected data were processed using ProteOn Manager software. First, the data was corrected for background using inter-spots. Then, double reference subtraction of the data was performed by using the buffer injection for analyte injections. The kinetic analysis of the data was performed using a Langmuir 1:1 binding model. The result for each mAb was reported in the format of ka (On-rate), kd (Off-rate) and KD (equilibrium dissociation constant).
Affinity of the parental and humanized antibodies to PD-1 was measured using SPR as described in Example 1.

[3] = target: T1, human PD-1 expressed on cells; assay: cell-based or functional assay; remark: listed apart in the source
[4] = target: T2, human PD-1 (soluble analyte in SPR); assay: SPR (ProteOn XPR36), mAb from crude supernatant captured on anti-human IgG Fc, PD-1 as analyte, 25 C
[5] = target: T3, biotinylated Human PD-1/PDCD1 (Acro Biosystems. Cat #PD1-H82E4) (human, UniProt Q15116 25-167, biotinylated); assay: Fab ELISA: Fab captured by anti-Fd(CH1), biotinylated human PD-1 at 5 nM, streptavidin-HRP chemiluminescence; reference parental PD1B878 Fab
T3 construct: Bought reagent, construct not described
T3 sequence (Q15116 25-167 limits assumed): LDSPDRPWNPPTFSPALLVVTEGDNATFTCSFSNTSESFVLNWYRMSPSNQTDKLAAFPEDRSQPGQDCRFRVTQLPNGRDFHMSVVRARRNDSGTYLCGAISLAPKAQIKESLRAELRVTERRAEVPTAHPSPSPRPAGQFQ
Procedure: For follow-up screening, plasmid DNA was prepared from overnight culture of the TG-1 Escherichia coli cells and the pIX gene was excised by NheI/SpeI digestion. After ligation, the DNA was transformed into TG-1 cells and grown on LB/Agar plates overnight. The next day, colonies were picked, grown overnight, and the cultures used for (i) colony sequencing of the V-regions, and (ii) induction of Fab production. For Fab production, the overnight culture was diluted 100 folds in new media and grown for 5-6 hours at 37° C. Fab production was induced by the addition of fresh media containing IPTG and the cultures were grown overnight at 30° C. The following day, the cultures were spun down and the supernatants, containing the soluble Fab proteins, were used for Fab ELISA. For the ELISA, the soluble Fab proteins were captured onto plates by a polyclonal anti-Fd(CH1) antibody. After washing and blocking, biotinylated Human PD-1/PDCD1 was added at 5 nM concentration. This concentration enabled ranking of the Fab variants, defined as fold change versus the parent, in which the parental Fab, present as a control in all plates, is defined as 100% binding. The biotinylated human PD-1 was detected by HRP-conjugated streptavidin with chemiluminescence measured in a plate reader.

[6] = target: T1, human PD-1 expressed on cells; assay: cell-based or functional assay; remark: listed apart in the source
[7] = target: T4, cyno PD-1 (soluble analyte in SPR) (cyno); assay: SPR (ProteOn XPR36), mAb captured on anti-human IgG Fc, cyno PD-1 as analyte, 25 C
T4 construct: also called cynomolgus PD-1
Procedure: as §1, §2
(§3) Affinity of the antibodies to human and cyno PD-1 was measured using SPR as described in Example 1.

[8] = target: T2, human PD-1 (soluble analyte in SPR); assay: SPR (ProteOn XPR36), mAb captured on anti-human IgG Fc, human PD-1 as analyte, 25 C
Procedure: as §1, §2, §3

T1 sequence (Q15116 25-288 limits assumed): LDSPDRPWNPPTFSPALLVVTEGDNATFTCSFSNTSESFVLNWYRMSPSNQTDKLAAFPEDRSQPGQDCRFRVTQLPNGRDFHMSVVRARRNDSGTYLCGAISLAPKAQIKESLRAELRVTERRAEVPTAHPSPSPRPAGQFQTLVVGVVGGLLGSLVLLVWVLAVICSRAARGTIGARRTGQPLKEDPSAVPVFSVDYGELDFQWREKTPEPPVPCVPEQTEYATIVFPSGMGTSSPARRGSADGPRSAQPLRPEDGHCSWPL
T2 sequence (Q15116 25-170 limits assumed): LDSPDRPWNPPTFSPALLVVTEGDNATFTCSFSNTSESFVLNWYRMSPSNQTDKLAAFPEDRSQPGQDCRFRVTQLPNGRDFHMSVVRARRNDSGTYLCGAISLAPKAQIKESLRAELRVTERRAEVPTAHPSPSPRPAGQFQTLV

B1: PD1B750 (antibody, human IgG1, kappa, V domains shown)
VH: QVQLVQSGAEVKKPGASVKVSCKASGYTFTTYWMHWVRQAPGQGLEWMGEINPNNGGINYAQKFQGRVTLTVDKSISTAYMELSRLRSDDTAVYYCTIDYYDYGGYWGQGTLVTVSS
VL: DIQMTQSPSSLSASVGDRVTITCKASQNVGTNVAWYQQKPEKAPKSLIYSASYRYSGVPSRFSGSGSGTDFTLTISSLQPEDFATYYCQQYNIYPYTFGQGTKLEIKR
notes: Humanized PD1B506, IgG1; also called VH PD1H388; VL PD1L470
% inhibition at 10 ug/ml mAb, CMV-PBMC assay, donor D4 [1]: 24.2%
% inhibition at 10 ug/ml mAb, CMV-PBMC assay, donor D5 [1]: 75%
Kd [2]: 23.2 nM
koff [2]: 0.00832 s⁻¹
kon [2]: 359000 M⁻¹ s⁻¹
mean % inhibition of T cell proliferation, CMV-PBMC assay (FIG. 5B) [3]: 65.9%

B2: PD1B850 (antibody, human IgG1, kappa, V domains shown)
VH: QVQLVQSGAEVKKPGASVKVSCKASGYTFTTYWMHWVRQAPGQGLEWMGEINPNNIGINYAQKFQGRVTLTVDKSISTAYMELSRLRSDDTAVYYCTIDYYDYGGYWGQGTLVTVSS
VL: DIQMTQSPSSLSASVGDRVTITCKASQNVGTNVAWYQQKPEKAPKSLIYSASYRYSGVPSRFSGSGSGTDFTLTISSLQPEDFATYYCQQYNIYPYTFGQGTKLEIKR
notes: G56I variant of PD1B750, IgG1; tested as crude supernatant in SPR; also called VH PD1H404; VL PD1L470
Kd [4]: 23 nM
koff [4]: 0.00719 s⁻¹
kon [4]: 313000 M⁻¹ s⁻¹

B3: PD1B848 (antibody, human IgG1, kappa, V domains shown)
VH: QVQLVQSGAEVKKPGASVKVSCKASGYTFTTYWMHWVRQAPGQGLEWMGEINPNKGGINYAQKFQGRVTLTVDKSISTAYMELSRLRSDDTAVYYCTIDYYDYGGYWGQGTLVTVSS
VL: DIQMTQSPSSLSASVGDRVTITCKASQNVGTNVAWYQQKPEKAPKSLIYSASYRYSGVPSRFSGSGSGTDFTLTISSLQPEDFATYYCQQYNIYPYTFGQGTKLEIKR
notes: N55K variant of PD1B750, IgG1; tested as crude supernatant in SPR; also called VH PD1H402; VL PD1L470
Kd [4]: 39.2 nM
koff [4]: 0.00991 s⁻¹
kon [4]: 253000 M⁻¹ s⁻¹

B4: PD1B756 (antibody, human IgG1, kappa, V domains shown)
VH: QITLKESGPTLVKPTQTLTLTCTFSGFSLSTSGMGVSWIRQPPGKALEWLAHIYWDDDKRYSPSLKSRLTITKDTSKNQVVLTMTNMDPVDTGTYYCVRKGYYDYGYVMDYWGQGTLVTVSS
VL: DIVMTQSPLSLPVTPGEPASISCRSSKSLLHSNGITYLNWYLQKPGQSPQLLIYQMSNLASGVPDRFSGSGSGTDFTLKISRVEAEDVGVYYCAQNLELPLTFGGGTKVEIKR
notes: Humanized PD1B512, IgG1; also called VH PD1H389; VL PD1L472
% inhibition at 10 ug/ml mAb, CMV-PBMC assay, donor D3 [1]: 27.4%
% inhibition at 10 ug/ml mAb, CMV-PBMC assay, donor D4 [1]: 0.3%
% inhibition at 10 ug/ml mAb, CMV-PBMC assay, donor D5 [1]: 69.3%
Kd [2]: 18.1 nM
koff [2]: 0.00214 s⁻¹
kon [2]: 118000 M⁻¹ s⁻¹
mean % inhibition of T cell proliferation, CMV-PBMC assay (FIG. 5B) [3]: 36.7%

B5: PD1B743 (antibody, human IgG1, kappa, V domains shown)
VH: QVQLVQSGSELKKPGASVKVSCKASGYTFTDYSMHWVRQAPGQGLEWMGWINIETGEPTYAQGFTGRFVFSLDTSVSTAYLQICSLKAEDTAVYFCARDYYGTYFYAMDYWGQGTLVTVSS
VL: EIVLTQSPATLSLSPGERATLSCTASSSVSSSYLHWYQQKPGLAPRLLIYSTSNLASGIPDRFSGSGSGTDYTLTISRLEPEDFAVYYCHQYHRSPLTFGQGTKLEIKR
notes: Humanized PD1B505, IgG1; also called VH PD1H384; VL PD1L469
% inhibition at 10 ug/ml mAb, CMV-PBMC assay, donor D4 [1]: 30.5%
% inhibition at 10 ug/ml mAb, CMV-PBMC assay, donor D5 [1]: 64%
Kd [2]: 32.8 nM
koff [2]: 0.003 s⁻¹
kon [2]: 91500 M⁻¹ s⁻¹
mean % inhibition of T cell proliferation, CMV-PBMC assay (FIG. 5B) [3]: 58%

B6: Fab variant of PD1B878 with VH PD1H585 (E57Y) (Fab, V domains shown)
VH: QVQLVQSGSELKKPGASVKVSCKASGYTFTDYSMHWVRQAPGQGLEWMGWINIETGYPTYAQGFTGRFVFSLDTSVSTAYLQISSLKAEDTAVYFCARDYYGTYFYAMDYWGQGTLVTVSS
VL: EIVLTQSPATLSLSPGERATLSCTASSSVSSSYLHWYQQKPGLAPRLLIYSTSNLASGIPDRFSGSGSGTDYTLTISRLEPEDFAVYYCHQYHRSPLTFGQGTKLEIK
notes: Soluble Fab in E. coli supernatant; pairing with the parental VL inferred from the non-combinatorial library design
fold binding relative to parental Fab [5]: ≥ 10 fold

B7: Fab variant of PD1B878 with VH PD1H586 (E57H) (Fab, V domains shown)
VH: QVQLVQSGSELKKPGASVKVSCKASGYTFTDYSMHWVRQAPGQGLEWMGWINIETGHPTYAQGFTGRFVFSLDTSVSTAYLQISSLKAEDTAVYFCARDYYGTYFYAMDYWGQGTLVTVSS
VL: EIVLTQSPATLSLSPGERATLSCTASSSVSSSYLHWYQQKPGLAPRLLIYSTSNLASGIPDRFSGSGSGTDYTLTISRLEPEDFAVYYCHQYHRSPLTFGQGTKLEIK
notes: Soluble Fab in E. coli supernatant; pairing with the parental VL inferred
fold binding relative to parental Fab [5]: ≥ 10 fold

B8: PD1B1086 (antibody, human IgG1, kappa, V domains shown)
VH: QVQLVQSGSELKKPGASVKVSCKASGYTFTDYSMHWVRQAPGQGLEWMGWINIETGHPTYAQGFTGRFVFSLDTSVSTAYLQISSLKAEDTAVYFCARDYYGTYFYAMDYWGQGTLVTVSS
VL: EIVLTQSPATLSLSPGERATLSCTASSSVSSSYLHWYQQKPGLAPRLLIYSTSNLASGIPDRFSGSGSGTDYTLTISRLEPEDFAVYYCHQYHRSPLTFGQGTKLEIKR
notes: also called VH PD1H586; VL PD1L469
Mean % inhibition across two donors, CMV-PBMC assay [6]: 72.7%
Kd [7]: 31.8 nM
koff [7]: 0.00544 s⁻¹
kon [7]: 171000 M⁻¹ s⁻¹
Kd [8]: 3.19 nM
koff [8]: 0.000394 s⁻¹
kon [8]: 124000 M⁻¹ s⁻¹

B9: Fab variant of PD1B878 with VL PD1L651 (V29F) (Fab, V domains shown)
VH: QVQLVQSGSELKKPGASVKVSCKASGYTFTDYSMHWVRQAPGQGLEWMGWINIETGEPTYAQGFTGRFVFSLDTSVSTAYLQISSLKAEDTAVYFCARDYYGTYFYAMDYWGQGTLVTVSS
VL: EIVLTQSPATLSLSPGERATLSCTASSSFSSSYLHWYQQKPGLAPRLLIYSTSNLASGIPDRFSGSGSGTDYTLTISRLEPEDFAVYYCHQYHRSPLTFGQGTKLEIK
notes: Soluble Fab in E. coli supernatant; pairing with the parental VH inferred
fold binding relative to parental Fab [5]: ≥ 10 fold

B10: Fab variant of PD1B878 with VH PD1H587 (E57W) (Fab, V domains shown)
VH: QVQLVQSGSELKKPGASVKVSCKASGYTFTDYSMHWVRQAPGQGLEWMGWINIETGWPTYAQGFTGRFVFSLDTSVSTAYLQISSLKAEDTAVYFCARDYYGTYFYAMDYWGQGTLVTVSS
VL: EIVLTQSPATLSLSPGERATLSCTASSSVSSSYLHWYQQKPGLAPRLLIYSTSNLASGIPDRFSGSGSGTDYTLTISRLEPEDFAVYYCHQYHRSPLTFGQGTKLEIK
notes: as for B7
fold binding relative to parental Fab [5]: ≥ 10 fold

B11: PD1B1090 (antibody, human IgG1, kappa, V domains shown)
VH: QVQLVQSGSELKKPGASVKVSCKASGYTFTDYSMHWVRQAPGQGLEWMGWINIETGYPTYAQGFTGRFVFSLDTSVSTAYLQISSLKAEDTAVYFCARDYYGTYFYAMDYWGQGTLVTVSS
VL: EIVLTQSPATLSLSPGERATLSCTASSSFSSSYLHWYQQKPGLAPRLLIYSTSNLASGIPDRFSGSGSGTDYTLTISRLEPEDFAVYYCHQYHRSPLTFGQGTKLEIKR
notes: also called VH PD1H585; VL PD1L651
Mean % inhibition across two donors, CMV-PBMC assay [6]: 74.8%
Kd [7]: 1.43 nM
koff [7]: 0.000185 s⁻¹
kon [7]: 130000 M⁻¹ s⁻¹
Kd [8]: 0.223 nM
koff [8]: 2.37e-05 s⁻¹
kon [8]: 106000 M⁻¹ s⁻¹

B12: Fab variant of PD1B878 with VL PD1L652 (S30P) (Fab, V domains shown)
VH: QVQLVQSGSELKKPGASVKVSCKASGYTFTDYSMHWVRQAPGQGLEWMGWINIETGEPTYAQGFTGRFVFSLDTSVSTAYLQISSLKAEDTAVYFCARDYYGTYFYAMDYWGQGTLVTVSS
VL: EIVLTQSPATLSLSPGERATLSCTASSSVPSSYLHWYQQKPGLAPRLLIYSTSNLASGIPDRFSGSGSGTDYTLTISRLEPEDFAVYYCHQYHRSPLTFGQGTKLEIK
notes: as for B9
fold binding relative to parental Fab [5]: ≥ 10 fold
